Results on 40 sequences are retold here after the nanobody polyreactivity screen of Harvey et al. (2022).

The nature of this data set: yeast display, Sf9 membrane polyspecificity reagent, FACS + sequencing; frameworks hold sequencing errors. The gist of the method:
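Galactose-induced (36–48 hours) yeast carrying a synthetic nanobody display library were exposed to 10% biotinylated, detergent-solubilized Sf9 membrane reagent at 4 °C for 1 hour. FACS followed streptavidin microbead enrichment, using low and high (top ~1%) gates for expression (anti-HA) and reagent binding (streptavidin). Colony PCR, MiSeq 2 × 250 sequencing and CDR-length filtering followed. Labels for polyreactivity reflect the gate of origin.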
Turning to “QVQLVESGGGLVQAGGRLRLSCAASGIIRGSYAMGWYRQAPGKERELVAGINSGGGTYYADSVKGRFTISRDNAKNTVYLQMNSLKPEDTAVYYCNARKSSGLSSYDWYSWEYGYWGQGTQVTVSS”, the “polyreactivity (PSR sort gate)” value is listed as “low polyreactivity”.

With “QVQLVESGGGLVQAGGSLRLSCAASGSTFEPYAMGWYRQAPGKERELVAAISWSGGSTYYADSVKGRFTISRDNAKNTVYLQMNSLQPEDTAVYYCAAESGVPYYLPVVIYYYWGQGTQVTVSS”, the “polyreactivity (PSR sort gate)” value is listed as “high polyreactivity”.

In the case of “QVQLVESGGGLVLAGGSLSLSCAASGSTFIWNAMGWYRQAPGKERELVAAIRRGSSTNYADSVKGRFTISRDNAKNTVYLQMNSLKPEDTAVYYCAKKQVTTDVSSETFVLEMDYWGQGTQVTVSS”, the “polyreactivity (PSR sort gate)” value is reported as “low polyreactivity”.

On to “QVQLVESGGGLVQAGGSLRLSCAASGITFETYAMGWYRQAPGKERELVAAITYSGGRTYYADSVKGRFTISRDNAKNTVYLQMNSLKPEDTAVYYCNARKYVGFWSRYDYWGQGTQVTVSS”, for which the “polyreactivity (PSR sort gate)” value is on record as “high polyreactivity”.

Regarding “QVQLVESGGGLVQAGGSLRLSCAASGGIFAYYTMGLYTQDHGKERELVAAISTSSVNTYYADSVKGRFTISRDNAKHTVYLQMNSLKQEVNAVYYCAAEVYYGYDYCGQGTQVTVSS”, the “polyreactivity (PSR sort gate)” value is reported as “low polyreactivity”.

In the case of “QVQLVESGGGLVQAGGSLRLSCAASGRTFIPYAMGWYRQAPGKVRELVAAIRNGGSTNYADSVKGRFTISRDNAKNTVYLQMNSLKPEATAVYYCNADLPVYVDYINGGYGYWGQGTQVTVSS”, the “polyreactivity (PSR sort gate)” value is on record as “low polyreactivity”.

As for “QVQLVQSGGGLVQARGILRLSCPPSGINFWYNAMGWYSQAQGKERELVASISTGGRTYYADSVKGRFTFSRDNAKNTVYLQMNSLKPVDTAVYYCAAASRVGFLYYYWGQGSQVTVSS”, the “polyreactivity (PSR sort gate)” value is recorded as “low polyreactivity”.

Consider “QVQHVESGGGLVQAGGSLRISCAASGFIFGPYAMGWSRKAPGKERELVAAISGRDGSTYYADSVKGRFTISRDNAKNSVYLHMNSLKPEDTAVYYCAAEVWTALYYSYYGYRYYWGQGTQVTLSS”, for which the “polyreactivity (PSR sort gate)” value is given as “high polyreactivity”.

On to “QVQLVESGGGLVQAGGSLRLSCAASGRIFYYYAMGWYRQAPGKERELVAAISGGGGSTYYADSVKGRFTISRDNAKNTVYLQMNSLKPEDTAVYYCAAEGAKDYTVSYDYWGQGTQVTVSS”, for which the “polyreactivity (PSR sort gate)” value was “high polyreactivity”.

As to “QVQLVESGGGLVQAGGSLRLSCAASGITFGPNAMGWYRQAPGKERELVAAISWRGGSTYYADSVKGRFTISRDYAKNTVYLQMNSLKPEDTAVYYCAKVQIPASYIRYDYWGQGTQVTVSS”, the “polyreactivity (PSR sort gate)” value is “low polyreactivity”.

With “QVQLVESGGGLVQAGGSLRLSCAASGSIFTPNAMGWYRQAPGKERELVAAISSSSDRTYYADSVKGRFTISRDNAKNTVYLQMNSLKPEETAVYYCAAYAQKRYYWGQGTQVTVSS”, the “polyreactivity (PSR sort gate)” value is recorded as “high polyreactivity”.

Consider “QVQLVESGGGLVQAGGSLRLSCAASGSISDSYAMGWYRQAPGKERELVAAITSGDSTYYADSVKGRFTISRDNAKNTVYLQMNSLKPEDTAFYYCAKRVSRVRGYGFTDWSEYDYWGQGTQVTVSS”, for which the “polyreactivity (PSR sort gate)” value is reported as “low polyreactivity”.

As for “QVQLVESGGGLVQAGGSLRLSCAASGYILFAYAMGWYRQAPGKERELVATITTSGGITYYADSVKGRFTISRDNAKNTVYLQMNSLKPDDTAVYYCAAAEGCGLVTYDYWGQGTQVTVSS”, the “polyreactivity (PSR sort gate)” value is recorded as “low polyreactivity”.

As for “QVQLVESGGGLVQAGGSLRLSCAASGFTFYSYAMGWYRQAPGKERELVAAISRSGGSTRYADSVKGRFTISRDNAKNTVYLQMNSLKPEDTAVYYCAARSWYPYRYSSLYYWGQGTQVTVSS”, the “polyreactivity (PSR sort gate)” value is reported as “high polyreactivity”.

For the sequence “QVQLVESGGCLVQAGGSLRLSCAASGRTFRHYGMGWYRPAPRKERELVAAISRSGGRTYYADSVKGRFTISRDNAKNTVYLQMNSLKPEDTAVYYCNAPYDVTTYAFDYWGQGTQVTVSS”, the “polyreactivity (PSR sort gate)” value is listed as “high polyreactivity”.

Regarding “QVQLVESGGGLVQAGGSLRLSCAASGRIFRPYTMGWYRQAPGKEWELVAAISIGGRTYYADSVKGRFTISRDNAKNTVYLKMNSLKPEDTAVYYCAAVGGSDRRARPGRAVDYWGQGTQVTVSS”, the “polyreactivity (PSR sort gate)” value is listed as “high polyreactivity”.

“QVQLVQTGRGLVQAGGSLRLICAASANIFYTNAMGWYRQAPGKERELVAAISGSGGRTYYADSVKGRFTISRDNAKNTVYLQMNSLKPEDTAVYYFNAVRRDYYDRTYGYWGQGTQVTVSS”: the “polyreactivity (PSR sort gate)” value is reported as “low polyreactivity”.

“QVQLVESGGGLVQAGGSLRLSCAASGLTFYVYAMGWYRQAPGKERELVAAINWSGGNTYYADSVKGRFTISRDNAKNTVYLQMNSLKPEDTAVYYCAAELYYPVGFDYWGQGTQVTVSS”: the “polyreactivity (PSR sort gate)” value is on record as “high polyreactivity”.

In the case of “HVQLVESGGGLVQAGGSLRLSCAASGSSLDYYVMGWYRQAPGNERELVAAIRGGGSTYYADSVKGRFTISRDNAKNTVYLQMKSLKPEDTEVYYCAKDSQTARDFDYWGQGTQVTVSS”, the “polyreactivity (PSR sort gate)” value was “low polyreactivity”.

As for “QVQLVESGGGLLQAGGSLRLSCAASGGIFQGNVMGWYRQAPGKERELVASIRRGGSTNYADSVKGRFTISRDNAKNTVYLQMNSLKPEDTAVYYCAARKWVGYHVWPLREYNYWGQGTQVTVSS”, the “polyreactivity (PSR sort gate)” value is reported as “low polyreactivity”.

As to “QVQLVESGGGLDQAGGSLRLSCAASGFTLDYYTMGRYRQAPGKERELVAAISWIGTSTYYADSVKGRFTISRDNAKNTVYLQMNSLKPEDTAVYYCAAVGASVDDYYWGQGTQVTVSS”, the “polyreactivity (PSR sort gate)” value was “high polyreactivity”.

With “QVQLVESGGGLVQAGGSLRLSCAASGLIFPSYTMGSYRQAPGKERELVAAITFSGDSTNYADSVKGRFTISRDNAKNTVYLQMNSLKPEDTAVYYCAAETITYGFDGDYWGQGTQVTVSS”, the “polyreactivity (PSR sort gate)” value was “low polyreactivity”.

In the case of “QVQLVESGGGLVQAGGSLRLSCAASGSIFVGYAMGWYRQAPGKERELVAAISWSGDSTYYADSVKGRFTISRDNAKNTVYLQMNSLTPEDTAVYYCAVDYAEIGPRPEVEYDYWGQGTQVTVSS”, the “polyreactivity (PSR sort gate)” value was “low polyreactivity”.

On to “QVQLVESGGGLVQAGGSLRLSCAASGRMFKINAMGCYRQAPGKERELVASIRTSSGSTYSADSVKGRFTLSRDNAKNTVYLQMNSLKPEDTAVYYCATQYRYYNHFVTPFTRYGYWGQGTQVTVSS”, for which the “polyreactivity (PSR sort gate)” value is reported as “high polyreactivity”.

As for “QVQLVESGGGLVQAGGSLRLSCAASGFTFWHYAMGWYRQAPGKERELVAAITWDGGSTYYADSVKGRFTISRDNAKNTFYLQMQSLKPEDNAVYYCAKLFGGTYYEYDYWGQGTQVTVSS”, the “polyreactivity (PSR sort gate)” value is listed as “low polyreactivity”.

For “QVQLVESGGGLVQAGGSLRLSCAASGSTLQDNAMGWYRQAPGKDRELVAAITTGSTTYADSVKGRFTISRDNAKNTVYIQMNSLKPEDTAVYYCAADSEEYDGYTWWVFKFDYWGQGTQVTVSS”, the “polyreactivity (PSR sort gate)” value is “low polyreactivity”.

As for “QVQVVESGGGLVQAGGSLRLSCAASGFIFYVYAMGWYTQAPGKERELVAAISKRSGGTRYADSVKGRFTISRDNAKNTVYLQMNSLKPEDTAVYYCNKYGQVPGYFSLDYWGQGTQVTVSS”, the “polyreactivity (PSR sort gate)” value is “high polyreactivity”.

As to “QVQLVESGGGLVQAGGSLRLSCADSGRTFYVNAMGWYRQAPGKEREFVAAISRRGGSTYYADSVKGRFTISRDNAKNTVYLQMNSLKPEDTAVYYCIAAYSSRYDYWGQGTQVTVSS”, the “polyreactivity (PSR sort gate)” value is given as “high polyreactivity”.

For the sequence “QVQLVESGGGLVQAGGSLRLSCAASGSTFQHYAMGWYRQAPGKERELVAAITNTGGSTYYADSVKGRFTISRDNAKNTVYLQMNSLKPEDTAVYYCATVGRRYGYPGYYWGQGTQVTVSS”, the “polyreactivity (PSR sort gate)” value is “low polyreactivity”.

In the case of “QVQLEESGGGLVQAGGSLRLSCAASGLISSPNAMGWYRQAPGKERELVAAITRRGGSTYYADSVKGRFTISRDNAMNTVYLQINSLKPEDTAVYYCAKATGRPGYDYWGQGTQVTVSS”, the “polyreactivity (PSR sort gate)” value was “high polyreactivity”.

For the sequence “QVQLVESGGGLVQAGGSLRLSCAASGRIFSFNAMGWYRQAPGKERELVAAISWSTGSTFYADSVKGRFTISRDNAKNTVYLQMNSLKPEDTAVYYCATGFPHPKRNVNRRNYWGQGTQVTVSS”, the “polyreactivity (PSR sort gate)” value is “high polyreactivity”.

Turning to “QVQLVESGGGLVQAGGSLRLSCAASGSTFDQYALGRYRQAPGKERELVADITSSDGSTYYADSVKGRFTISRDIAKNTVYLQMNSLKPEDTAVYYCNADYRYIWTYWGWSIYDYWGQGTQVTVSS”, the “polyreactivity (PSR sort gate)” value is recorded as “high polyreactivity”.

For the sequence “QVQLVESGGGLVQAGGSLRLSCAASGSTFWYYAMGWSRQAPGKERELVAAIRRGGSTYYADSVKGRFTISRDNAKNTVYLQMNSLKPVDTAVYYCAAERPYKTFGYGYWGQGTQVTVSS”, the “polyreactivity (PSR sort gate)” value is “high polyreactivity”.

As for “QVQLVESGGGLVQAGGSLRISCAASGITFAWYAMGWYRQAPGKERELVATISAGGAITYYADSVKGRFTISRDNAKNTVYLQMNSLKPEDTAVYYCNAVTYGPYGWGQGTQVTVSS”, the “polyreactivity (PSR sort gate)” value was “high polyreactivity”.

As to “QVQLVESGGGLVQAGGSLRLSCAASGRIFRDYVMGWYRQAPGKERELVAAISRGGSTYYADSVKGRFTISRDNAKNTVYLQMNSLKPEDTAVYYCAASWRSYSQLDYYWGQGTQVTVSS”, the “polyreactivity (PSR sort gate)” value is “high polyreactivity”.

As to “QVHLVESGGGLVQAGGSLRLSCAASGFNFNKYALGWYRQAPGKERELVAAITIGGSTYYADSVKGRFTISRDNAKNTVYFQMNSLKPEDTAVYYCAAVQGKVRGGYYWGQGTQVTVSS”, the “polyreactivity (PSR sort gate)” value was “high polyreactivity”.

On to “QVQIVESGGGLVQAGGSLRLSCGASGLSFYYYAMGWYRQAPGKERELVASISTGGNTYYADSVKGRFTISRVNAKNTVYLQMNSLNPEDTAVYYCAAGLYSWSGYASYNSAYGYWGQGTQVTVSS”, for which the “polyreactivity (PSR sort gate)” value is listed as “low polyreactivity”.

For “QVRLVESGGGLFQAGGSLRISCAASGRIFNTYAMGWYRQAPGKERELVAAIRWSSGSTFYADSVKGRFTISRDYAKNTVYLQMNSLKPEDTAVYYCAADNWAVNAYYGYIYDYWGQGTQVTVSS”, the “polyreactivity (PSR sort gate)” value is on record as “low polyreactivity”.

As for “QVQLVESGGGLVQAGGSLRLSCAASGSILYVYAMGWYRQAPGKERELVATITGRVVSTNYADSVKGRFTISRDNAKNTVYLQMNSLKPEDTAVYYCAARTRRRRGEYDYWGQGTQVTVSS”, the “polyreactivity (PSR sort gate)” value was “high polyreactivity”.

With “QVQLVESGGGLVQAGGSLRLSCADSGRIFWANAMGWYRQAPGKERELVAAITWRGTSTYYADSVKGRFTISRDNAKNTVYLQMNSLKPEDTAVYYCAKVPYLKYGYDYWGQGTQVTVSS”, the “polyreactivity (PSR sort gate)” value is reported as “high polyreactivity”.
